Experimental findings from patent US20180243435A1 (AbbVie / Abbott, published 2018) are described below.

Assay [1] addresses T1, DLL3 on DLL3-expressing HEK293T cells (human, UniProt Q9NYJ7 27-618).
T1 construct: Cells were formalin fixed and paraffin embedded for IHC; also called DLL3-overexpressing HEK293T cell pellets; DLL3-expressing HEK293T FFPE sections
T1 sequence: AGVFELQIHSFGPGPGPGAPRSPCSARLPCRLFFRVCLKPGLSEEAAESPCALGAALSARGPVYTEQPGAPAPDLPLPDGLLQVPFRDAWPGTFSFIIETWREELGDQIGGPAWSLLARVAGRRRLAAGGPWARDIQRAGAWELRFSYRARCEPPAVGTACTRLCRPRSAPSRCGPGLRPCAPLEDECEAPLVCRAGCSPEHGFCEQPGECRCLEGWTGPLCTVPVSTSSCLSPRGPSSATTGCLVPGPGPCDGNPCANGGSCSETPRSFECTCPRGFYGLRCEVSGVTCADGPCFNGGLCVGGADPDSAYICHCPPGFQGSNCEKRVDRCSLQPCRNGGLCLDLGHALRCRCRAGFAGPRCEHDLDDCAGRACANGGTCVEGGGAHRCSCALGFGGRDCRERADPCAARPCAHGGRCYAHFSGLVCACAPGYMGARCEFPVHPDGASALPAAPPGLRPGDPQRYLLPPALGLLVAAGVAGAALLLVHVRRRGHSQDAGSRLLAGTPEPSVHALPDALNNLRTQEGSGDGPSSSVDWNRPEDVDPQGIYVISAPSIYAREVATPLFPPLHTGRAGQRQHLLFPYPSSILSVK
Description: immunohistochemistry on HEK293T parental vs DLL3-expressing cell pellets. On the procedure:
(§1) In order to identify an IHC-compatible anti-DLL3 antibody, IHC was performed on HEK293T parental cell pellets or DLL3-expressing HEK293T cell pellets using numerous anti-DLL3 antibodies of the invention. Several murine anti-DLL3 antibodies (including SC16.65) were able to specifically detect DLL3-overexpressing HEK293T cell pellets more effectively than other anti-DLL3 antibodies of the invention that were tested (data not shown). The ability of these antibodies to specifically detect DLL3 was confirmed by a competition experiment in which the relevant anti-DLL3 antibody was mixed with a 5× molar ratio excess of hDLL3-His protein and then incubated with DLL3-expressing HEK293T formalin fixed and paraffin embedded (FFPE) sections.

The target of a further assay is T2, human DLL3-His protein (human, UniProt Q9NYJ7 27-492).
T2 construct: Purified from supernatants of CHO-S cells; also called hDLL3-His; recombinant DLL3-His; not shown: His tag
T2 sequence: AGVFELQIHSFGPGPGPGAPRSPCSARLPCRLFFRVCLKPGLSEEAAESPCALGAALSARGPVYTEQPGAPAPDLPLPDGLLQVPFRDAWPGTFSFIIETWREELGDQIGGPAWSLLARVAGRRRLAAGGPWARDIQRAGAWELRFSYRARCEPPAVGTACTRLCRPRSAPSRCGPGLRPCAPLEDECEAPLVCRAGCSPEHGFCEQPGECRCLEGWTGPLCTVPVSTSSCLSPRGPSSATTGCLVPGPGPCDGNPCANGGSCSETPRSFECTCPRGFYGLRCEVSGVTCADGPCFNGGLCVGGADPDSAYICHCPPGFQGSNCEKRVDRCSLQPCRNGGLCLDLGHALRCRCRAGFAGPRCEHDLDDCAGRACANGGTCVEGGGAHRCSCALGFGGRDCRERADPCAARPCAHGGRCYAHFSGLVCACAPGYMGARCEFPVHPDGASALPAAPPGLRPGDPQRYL
The assay is described as follows: IHC competition: antibody mixed with a 5x molar ratio excess of hDLL3-His before staining FFPE sections. On the procedure: as §1

For assay [2], the target named is T3, DLL3 extracellular domain (amino acids 27-466) displayed on yeast (human, UniProt Q9NYJ7 27-466).
T3 construct: also called DLL3 ECD; wild type DLL3 ECD
T3 sequence: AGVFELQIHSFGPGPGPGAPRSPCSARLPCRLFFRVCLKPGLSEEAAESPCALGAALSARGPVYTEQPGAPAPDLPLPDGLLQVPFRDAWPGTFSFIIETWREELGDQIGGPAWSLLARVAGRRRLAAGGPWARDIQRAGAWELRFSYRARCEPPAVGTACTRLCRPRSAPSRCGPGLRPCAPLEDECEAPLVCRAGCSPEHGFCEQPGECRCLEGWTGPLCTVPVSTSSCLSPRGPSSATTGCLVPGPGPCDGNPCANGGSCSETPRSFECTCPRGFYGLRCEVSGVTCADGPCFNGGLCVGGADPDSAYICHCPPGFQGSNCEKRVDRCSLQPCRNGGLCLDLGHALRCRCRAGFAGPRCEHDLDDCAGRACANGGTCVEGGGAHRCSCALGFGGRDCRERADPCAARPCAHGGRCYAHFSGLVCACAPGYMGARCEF
Description: fine epitope mapping (phage display peptide library or yeast display of DLL3 ECD mutants).

B1: SC16.65 (antibody, V domains shown)
VH: QVTLKESGPGILQPSQTLSLTCSFSGFSLSTSGMGVGWIRQPSGKGLEWLALIWWDDVKRYNPALKSRLTISKDASSSQVFLKIASVDTADTATYYCARIASYDYDVVYAMDYWGQGTSVSVSS
VL: QIVLTQSPALMSASPGEKVTMTCSVTSSVSYMYWYQQKPRSSPKPWIYLTSNLASGVPARFSGSGSGTSYSLTISSVEAEDAATYYCQQWRNNPFTFGSGTKVEIK
notes: murine hybridoma mAb
Consider B1, for which the binding result (in assay [1]; with human DLL3-His protein) was “binds” throughout.

B2: SC16.34 (antibody, V domains shown)
VH: QIQLVQSGPELKRPGETVKISCKASGYTFTNYGMNWVKQAPGKGLKWMGWINTYTGDPTYADDFKGRFAFSLETSASTAYLQINNLKNEDTATYFCARIGGNSPSDYWGQGTSLTVSS
VL: SIVMTQTPKFLLVSAGDRVTITCKASQSVSNDVAWYQQKPGQSPKLLIYYASNRYSGVPDRFTGSGYGTDFTFTISTVQAEDLAVYFCQQDYSSPWTFGGGTKLEIK
notes: murine hybridoma mAb
For B2, the binding result in assay [2] is recorded as “binds”.

B3: SC16.56 (antibody, V domains shown)
VH: QIQLVQSGPELKKPGETVKISCKASGYTFTNYGMNWVKQAPGKGLKWMAWINTYTGEPTYADDFKGRFAFSLETSASTASLQIINLKNEDTATYFCARIGDSSPSDYWGQGTTLTVSS
VL: SIVMTQTPKFLLVSAGDRVTITCKASQSVSNDVVWYQQKPGQSPKLLIYYASNRYTGVPDRFAGSGYGTDFSFTISTVQAEDLAVYFCQQDYTSPWTFGGGTKLEIR
notes: murine hybridoma mAb
Regarding B3, the binding result in assay [2] is recorded as “binds”.

B4: SC16.23 (antibody, V domains shown)
VH: QVTLKESGPGILQPSQTLSLTCSFSGFSLSTSNTGIGWIRQPSGTGLEWLAHIWWNDDKYYNPSLKSRLTISKETSNNQVFLKITNVDTADTASYFCVQIGRDYSNYAWYFDVWGAGTTVTVSS
VL: QIVLTQSPAIMSASPGEKVTLTCSASSSVSSRYLYWYQQKPGSSPKLWIYSTSNLASGVPARFSGSGSGTSYSLIISSMEAEDAASYFCHQWSNYPLTFGAGTKLELK
notes: murine hybridoma mAb
In the case of B4, in assay [2], the binding result was “binds”.
